# Laboratory results taken from the supplement of paper PMC10567573.
# B1: HMOX1 (parent)
# chain: YHIYVALEEEIERNKESPVFAPVY
# Variants of: B1
# Experiment: protein stability index of a GFP-peptide fusion (GPS, HEK-293T) (PSI 1-6); higher = more stable
# Conditions: c terminus: a fixed tail appended
# 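Note: lentivirally expressed fusions sorted by FACS into six bins by GFP to DsRed ratio, PSI derived from sequencing read proportions per bin multiplied by bin number.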
row,Variant,protein stability index
1,YHIYAALEEEIERNKESPVFAPVY,3.79
2,YHIYKALEEEIERNKESPVFAPVY,3.47
3,YHIYTALEEEIERNKESPVFAPVY,3.39
4,YHIYCALEEEIERNKESPVFAPVY,1.79
5,YHIYFALEEEIERNKESPVFAPVY,1.63
6,YHIYQALEEEIERNKESPVFAPVY,3.94
7,YHIYSALEEEIERNKESPVFAPVY,2.67
8,YHIYNALEEEIERNKESPVFAPVY,3.59
9,YHIYYALEEEIERNKESPVFAPVY,1.47
10,YHIYPALEEEIERNKESPVFAPVY,2.43
11,YHIYRALEEEIERNKESPVFAPVY,3.13
12,YHIYDALEEEIERNKESPVFAPVY,4.82
13,YHIYGALEEEIERNKESPVFAPVY,2.23
14,YHIYWALEEEIERNKESPVFAPVY,2.12
15,YHIYEALEEEIERNKESPVFAPVY,4.87
16,YHIYLALEEEIERNKESPVFAPVY,2.29
17,YHIYIALEEEIERNKESPVFAPVY,1.94
18,YHIYMALEEEIERNKESPVFAPVY,2.79
19,YHIYHALEEEIERNKESPVFAPVY,2.34
20,YHIEVALEEEIERNKESPVFAPVY,2.09
21,YHIFVALEEEIERNKESPVFAPVY,4.8
22,YHIAVALEEEIERNKESPVFAPVY,2.34
23,YHIDVALEEEIERNKESPVFAPVY,2.29
24,YHIMVALEEEIERNKESPVFAPVY,1.36

row,Variant,protein stability index
1,YHIRVALEEEIERNKESPVFAPVY,1.57
2,YHISVALEEEIERNKESPVFAPVY,1.58
3,YHIQVALEEEIERNKESPVFAPVY,2.35
4,YHIPVALEEEIERNKESPVFAPVY,1.78
5,YHIIVALEEEIERNKESPVFAPVY,1.49
6,YHIGVALEEEIERNKESPVFAPVY,1.64
7,YHIKVALEEEIERNKESPVFAPVY,2.41
8,YHITVALEEEIERNKESPVFAPVY,1.59
9,YHIHVALEEEIERNKESPVFAPVY,2.01
10,YHILVALEEEIERNKESPVFAPVY,2.26
11,YHINVALEEEIERNKESPVFAPVY,2.03
12,YHIYVALEEEIMRNKESPVFAPVY,1.2
13,YHIYVALEEEILRNKESPVFAPVY,1.83
14,YHIYVALEEEIFRNKESPVFAPVY,2.35
15,YHIYVALEEEIIRNKESPVFAPVY,1.45
16,YHIYVALEEEICRNKESPVFAPVY,1.52
17,YHIYVALEEEINRNKESPVFAPVY,2.29
18,YHIYVALEEEIQRNKESPVFAPVY,1.95
19,YHIYVALEEEIPRNKESPVFAPVY,3.7
20,YHIYVALEEEIGRNKESPVFAPVY,3.07
21,YHIYVALEEEIARNKESPVFAPVY,1.68
22,YHIYVALEEEITRNKESPVFAPVY,1.85
23,YHIYVALEEEISRNKESPVFAPVY,2.42
